Measurements taken from the RNAGym collection of RNA variant scans (doi:10.7554/elife.90254).

B1: OR4K15 (parent)
chain: GUUAACGGUCAUAGGCCAUGGAAACUAGGAGCACCAUUUCGCUGCCAGUGAAGAAAUGAACAAAGAAAAUCUGGGCCAGGCAGGCAUCAAAAGAAAUAGUCUUGCGCUCAACCAGAAAGUCUGUAAUCAUUUUAAGGGUA

Variants of: B1
Experiment: self-cleavage, relative activity (ratio to wild type); higher = more cleavage; in vitro, sequencing; the parent is a self-cleaving ribozyme

Variant | self-cleavage
GUUAACGGUCAUAGGCCAUGGAAACUAGGAGCACCAUUUCGCUGCCAGUGUAGAAAUGAACAAAGAAAAUCUGGGCCUGGCAGGCAUCAAAAGAAAUAGUCUUGCGCUCAACCAGAAAGUCUGUAAUCAUUUUAAGGGUA [A51U A78U] | 0.36
GUUAACGGUCAUAGGCCAUGGAAACUAGGAGCACCAUUUCGCUGCCAGUGGAGAAAUGAACAAAGAAAAUCUGGGCCAGGCAGGCAUCAAAAGAAAUAGUCUUGCGCUCAACCAGAAAGUCUGUAAUCAUGUUAAGGGUA [A51G U131G] | 1.08
GUUAACGGUCAUAGGCCAUGGAAACUAGGAGCACCAUUUCGCUGCCAGUGGAGAAAUGAACAAAGAAAAUCUGGGCCAGGCAGGCAUCAAAAGAAAUAGUCUUGCGCUCAACCAGAAAGUCUGUAAUCAUCUUAAGGGUA [A51G U131C] | 1.25
GUUAACGGUCAUAGGCCAUGGAAACUAGGAGCACCAUUUCGCUGCCAGUGGAGAAAUGAACAAAGAAAAUCUGGGCCAGGCAGGCAUCAAAAGAAAUAGUCUUGCGCUCAACCAGAAAGGCUGUAAUCAUUUUAAGGGUA [A51G U120G] | 2.37
GUUAACGGUCAUAGGCCAUGGAAACUAGGAGCACCAUUUCGCUGCCAGUGGAGAAAUGAACAAAGAAAAUCUGGGCCAGGCAGGCAUCAAAAGAAAUAGUCUUGCGCCCAACCAGAAAGUCUGUAAUCAUUUUAAGGGUA [A51G U108C] | 0.02
GUUAACGGUCAUAGGCCAUGGAAACUAGGAGCACCAUUUCGCUGCCAGUGGAGAAAUGAACAAAGAAAAUCUGGGCCAGGCAGGCAUCAAAAGAAAUAGUCUUGCGCUCAACCAGAAAGUCUGUAAACAUUUUAAGGGUA [A51G U127A] | 2.09
GUUAACGGUCAUAGGCCAUGGAAACUAGGAGCACCAUUUCGCUGCCAGUGGAGAAAUGAACAAAGAAAAUCUGGGCCAGGCAGGCAUCAAAAGAAAUAGUCUUGCGCUCAACCAGAAAGUCUGUAACCAUUUUAAGGGUA [A51G U127C] | 1.04
GUUAACGGUCAUAGGCCAUGGAAACUAGGAGCACCAUUUCGCUGCCAGUGUUGAAAUGAACAAAGAAAAUCUGGGCCAGGCAGGCAUCAAAAGAAAUAGUCUUGCGCUCAACCAGAAAGUCUGUAAUCAUUUUAAGGGUA [A51U A52U] | 1.99
GUUAACGGUCAUAGGCCAUGGAAACUAGGAGCACCAUUUCGCUGCCAGUGUGGAAAUGAACAAAGAAAAUCUGGGCCAGGCAGGCAUCAAAAGAAAUAGUCUUGCGCUCAACCAGAAAGUCUGUAAUCAUUUUAAGGGUA [A51U A52G] | 0.93
GUUAACGGUCAUAGGCCAUGGAAACUAGGAGCACCAUUUCGCUGCCAGUGGAGAAACGAACAAAGAAAAUCUGGGCCAGGCAGGCAUCAAAAGAAAUAGUCUUGCGCUCAACCAGAAAGUCUGUAAUCAUUUUAAGGGUA [A51G U57C] | 0.93
GUUAACGGUCAUAGGCCAUGGAAACUAGGAGCACCAUUUCGCUGCCAGUGGAGAAAUGAACAAAGAAAAUCUGGGCCAGGCAGGCAUCAAAAGAAAUAGUCUUGCACUCAACCAGAAAGUCUGUAAUCAUUUUAAGGGUA [A51G G106A] | 0
GUUAACGGUCAUAGGCCAUGGAAACUAGGAGCACCAUUUCGCUGCCAGUGGAGAAAUGAACAAAGAAAAUCUGGGCCAGGCAGGCAUCAAAAGAAAUAGUCUUGCGCUCAACCAGAAAGUCUGUAAUCAUUUAAAGGGUA [A51G U133A] | 1.15
GUUAACGGUCAUAGGCCAUGGAAACUAGGAGCACCAUUUCGCUGCCAGUGGAGAAAUGAACAAAGAAAAUCUGGGCCAGGCAGGCAUCAAAAGAAAUAGUCUUGCGCUCAACCAGAAAGUCUGUAAUCAUUUGAAGGGUA [A51G U133G] | 1.24
GUUAACGGUCAUAGGCCAUGGAAACUAGGAGCACCAUUUCGCUGCCAGUGUAGAAAUGAACGAAGAAAAUCUGGGCCAGGCAGGCAUCAAAAGAAAUAGUCUUGCGCUCAACCAGAAAGUCUGUAAUCAUUUUAAGGGUA [A51U A62G] | 1.48
GUUAACGGUCAUAGGCCAUGGAAACUAGGAGCACCAUUUCGCUGCCAGUGUAGAAAUGAACUAAGAAAAUCUGGGCCAGGCAGGCAUCAAAAGAAAUAGUCUUGCGCUCAACCAGAAAGUCUGUAAUCAUUUUAAGGGUA [A51U A62U] | 1.15
GUUAACGGUCAUAGGCCAUGGAAACUAGGAGCACCAUUUCGCUGCCAGUGGAGAAAUGAACAAAGAAAAUCCGGGCCAGGCAGGCAUCAAAAGAAAUAGUCUUGCGCUCAACCAGAAAGUCUGUAAUCAUUUUAAGGGUA [A51G U72C] | 0.38
GUUAACGGUCAUAGGCCAUGGAAACUAGGAGCACCAUUUCGCUGCCAGUGGAGAAAUGAACAAAGAAAAUCGGGGCCAGGCAGGCAUCAAAAGAAAUAGUCUUGCGCUCAACCAGAAAGUCUGUAAUCAUUUUAAGGGUA [A51G U72G] | 0.25
GUUAACGGUCAUAGGCCAUGGAAACUAGGAGCACCAUUUCGCUGCCAGUGGAGAAAUGAACAAAGAAAAUCUGGGCCAGGCAGGCAUCAAAAGAAACAGUCUUGCGCUCAACCAGAAAGUCUGUAAUCAUUUUAAGGGUA [A51G U97C] | 1.75
GUUAACGGUCAUAGGCCAUGGAAACUAGGAGCACCAUUUCGCUGCCAGUGUAGAUAUGAACAAAGAAAAUCUGGGCCAGGCAGGCAUCAAAAGAAAUAGUCUUGCGCUCAACCAGAAAGUCUGUAAUCAUUUUAAGGGUA [A51U A55U] | 1.52
GUUAACGGUCAUAGGCCAUGGAAACUAGGAGCACCAUUUCGCUGCCAGUGGAGAAAUGAACAAAGAAAAUCUGGGCCAGGCAGGCAUCAAAAGAAAUAGUCUUGCGCUCAACCAGAAAGUCUGUAAUCAUUUUAAAGGUA [A51G G136A] | 2
GUUAACGGUCAUAGGCCAUGGAAACUAGGAGCACCAUUUCGCUGCCAGUGUAGAAAUGAACAAAGAAAAUCUGGGCCAGGCGGGCAUCAAAAGAAAUAGUCUUGCGCUCAACCAGAAAGUCUGUAAUCAUUUUAAGGGUA [A51U A82G] | 0.68

Variant | self-cleavage
GUUAACGGUCAUAGGCCAUGGAAACUAGGAGCACCAUUUCGCUGCCAGUGUAGAAAUGGACAAAGAAAAUCUGGGCCAGGCAGGCAUCAAAAGAAAUAGUCUUGCGCUCAACCAGAAAGUCUGUAAUCAUUUUAAGGGUA [A51U A59G] | 0.95
GUUAACGGUCAUAGGCCAUGGAAACUAGGAGCACCAUUUCGCUGCCAGUGGAGAAAUGAACAAAGAAAAUCUGGGCCAGGCAGGCAUCAAAAGAAAUAGUCUUGCGCUCAACCAGAAAGUCUGUAAUCAAUUUAAGGGUA [A51G U130A] | 1.63
GUUAACGGUCAUAGGCCAUGGAAACUAGGAGCACCAUUUCGCUGCCAGUGGAGAAAUGAACAAAGAAAAUCUGGGCCAGGCAGGCAUCAAAAGAAAUAGUCUUGCGCUCAACCAGAAAGUCUGUAAUCAGUUUAAGGGUA [A51G U130G] | 0.67
GUUAACGGUCAUAGGCCAUGGAAACUAGGAGCACCAUUUCGCUGCCAGUGGAGAAAUGAACAAAGAAAAUCUGGGCCAGGCAGGCAUCAAAAGAAAUAGUCUUGCGCUCAACCAGAAAGUCUGUAAUCAUUUUAAGGGAA [A51G U139A] | 1.48
GUUAACGGUCAUAGGCCAUGGAAACUAGGAGCACCAUUUCGCUGCCAGUGGAGAAAUGAACAAAGAAAAUCUGGGCCAGGCAGGCAGCAAAAGAAAUAGUCUUGCGCUCAACCAGAAAGUCUGUAAUCAUUUUAAGGGUA [A51G U87G] | 0.43
GUUAACGGUCAUAGGCCAUGGAAACUAGGAGCACCAUUUCGCUGCCAGUGUAGAAAUGAACAAGGAAAAUCUGGGCCAGGCAGGCAUCAAAAGAAAUAGUCUUGCGCUCAACCAGAAAGUCUGUAAUCAUUUUAAGGGUA [A51U A64G] | 1.28
GUUAACGGUCAUAGGCCAUGGAAACUAGGAGCACCAUUUCGCUGCCAGUGUAGAAAUGAACAAAGAGAAUCUGGGCCAGGCAGGCAUCAAAAGAAAUAGUCUUGCGCUCAACCAGAAAGUCUGUAAUCAUUUUAAGGGUA [A51U A67G] | 1.23
GUUAACGGUCAUAGGCCAUGGAAACUAGGAGCACCAUUUCGCUGCCAGUGUAGAAAUGAACAAAGAUAAUCUGGGCCAGGCAGGCAUCAAAAGAAAUAGUCUUGCGCUCAACCAGAAAGUCUGUAAUCAUUUUAAGGGUA [A51U A67U] | 2.12
GUUAACGGUCAUAGGCCAUGGAAACUAGGAGCACCAUUUCGCUGCCAGUGUAGGAAUGAACAAAGAAAAUCUGGGCCAGGCAGGCAUCAAAAGAAAUAGUCUUGCGCUCAACCAGAAAGUCUGUAAUCAUUUUAAGGGUA [A51U A54G] | 1.36
GUUAACGGUCAUAGGCCAUGGAAACUAGGAGCACCAUUUCGCUGCCAGUGGAGAAAUGAACAAAGAAAAUCUGGGCCAGGCAGGCAUCAAAAGAAAUAGUCUCGCGCUCAACCAGAAAGUCUGUAAUCAUUUUAAGGGUA [A51G U103C] | 1.09
GUUAACGGUCAUAGGCCAUGGAAACUAGGAGCACCAUUUCGCUGCCAGUGUAGAAAUGAACAAAGAAAAUCUGGGCCAGGCAGGCAUCAAGAGAAAUAGUCUUGCGCUCAACCAGAAAGUCUGUAAUCAUUUUAAGGGUA [A51U A91G] | 0.5
GUUAACGGUCAUAGGCCAUGGAAACUAGGAGCACCAUUUCGCUGCCAGUGGAGAAAUGAACAAAGAAAAUCUGGGCCAGGCAGGCAUCAAAAGAAAUAGACUUGCGCUCAACCAGAAAGUCUGUAAUCAUUUUAAGGGUA [A51G U100A] | 0.56
GUUAACGGUCAUAGGCCAUGGAAACUAGGAGCACCAUUUCGCUGCCAGUGGAGAAAUGAACAAAGAAAAUCUGGGCCAGGCAGGCAUCAAAAGAAAUAGCCUUGCGCUCAACCAGAAAGUCUGUAAUCAUUUUAAGGGUA [A51G U100C] | 1.87
GUUAACGGUCAUAGGCCAUGGAAACUAGGAGCACCAUUUCGCUGCCAGUGUAGAAAUGAACAAAGGAAAUCUGGGCCAGGCAGGCAUCAAAAGAAAUAGUCUUGCGCUCAACCAGAAAGUCUGUAAUCAUUUUAAGGGUA [A51U A66G] | 2.03
GUUAACGGUCAUAGGCCAUGGAAACUAGGAGCACCAUUUCGCUGCCAGUGUAGAAAUGAACAAAGAAAAUCUGGGCCAGGCAGGCAUCAAAAGAAAUAGUCUUGCGCUCAACCAGAAAGUCUGUAAUCAUUUUAAGGGUA [A51U] | 1.5
GUUAACGGUCAUAGGCCAUGGAAACUAGGAGCACCAUUUCGCUGCCAGUGUAGAAAUGAACAGAGAAAAUCUGGGCCAGGCAGGCAUCAAAAGAAAUAGUCUUGCGCUCAACCAGAAAGUCUGUAAUCAUUUUAAGGGUA [A51U A63G] | 1.62
GUUAACGGUCAUAGGCCAUGGAAACUAGGAGCACCAUUUCGCUGCCAGUGGAGAAAUGAACAAAGAAAAUCUGGGCCAGGCAGGCAUCAAAAGAAAUAGUCUUGCGCUCAACCAGAAAGUCAGUAAUCAUUUUAAGGGUA [A51G U122A] | 1.85
GUUAACGGUCAUAGGCCAUGGAAACUAGGAGCACCAUUUCGCUGCCAGUGGAGAAAUGAACAAAGAAAAUCUGGGCCAGGCAGGCAUCAAAAGAAAUAGUCUUGCGCUCAACCAGAAAGUCUGGAAUCAUUUUAAGGGUA [A51G U124G] | 1.05
GUUAACGGUCAUAGGCCAUGGAAACUAGGAGCACCAUUUCGCUGCCAGUGGAGAAAUGAACAAAGAAAACCUGGGCCAGGCAGGCAUCAAAAGAAAUAGUCUUGCGCUCAACCAGAAAGUCUGUAAUCAUUUUAAGGGUA [A51G U70C] | 0.95
GUUAACGGUCAUAGGCCAUGGAAACUAGGAGCACCAUUUCGCUGCCAGUGGAGAAAUGAACAAAGAAAAUCUGGGCCAGGCAGGCAUCAAAAGAAAUAGUCUUGCGCUCAACCAGAAAGUCUGUAAUCAUUUUAAGGCUA [A51G G138C] | 1.66
